Test results taken from patent publication US20130252983.

What was measured:
[1] = test system: GAC (S103A), phospho-defective mutant of mouse glutaminase C
[2] = test system: GACΔC, C-terminal truncation mutant of mouse glutaminase C
[3] = test system: V5-tagged wild-type mouse glutaminase C (GAC)
V5-tagged wild-type mouse glutaminase C (GAC), sequence (chain, as listed by the source): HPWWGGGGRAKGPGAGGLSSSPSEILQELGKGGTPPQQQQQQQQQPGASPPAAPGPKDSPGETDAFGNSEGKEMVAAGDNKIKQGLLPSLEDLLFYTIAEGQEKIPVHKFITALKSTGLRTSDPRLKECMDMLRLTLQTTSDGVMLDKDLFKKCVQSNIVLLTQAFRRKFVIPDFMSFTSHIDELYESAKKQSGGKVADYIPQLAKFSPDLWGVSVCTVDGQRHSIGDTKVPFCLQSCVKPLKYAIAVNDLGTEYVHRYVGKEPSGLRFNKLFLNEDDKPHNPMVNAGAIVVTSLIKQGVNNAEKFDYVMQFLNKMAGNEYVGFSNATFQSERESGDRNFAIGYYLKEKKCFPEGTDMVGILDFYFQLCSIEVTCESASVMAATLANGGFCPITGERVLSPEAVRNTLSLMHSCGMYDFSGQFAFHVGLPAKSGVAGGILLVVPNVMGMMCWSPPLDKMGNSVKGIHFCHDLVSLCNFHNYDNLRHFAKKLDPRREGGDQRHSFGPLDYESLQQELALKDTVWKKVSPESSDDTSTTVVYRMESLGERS

GAC (S103A), phospho-defective mutant of mouse glutaminase C, sequence (chain, as listed by the source S103A): as the sequence (chain, as listed by the source) above, with S49A counted along it
GACΔC, C-terminal truncation mutant of mouse glutaminase C, sequence (chain, as listed by the source mutant): as the sequence (chain, as listed by the source) above

mTOR (mammalian target of rapamycin) was tested, and the “phosphorylation of proteins immunoprecipitated with GAC after addition of radio-labeled ATP under conditions favorable for the activation of the mTOR kinase” value (“phosphorylation” below) [1] was “but not for proteins immunoprecipitated with GAC (S103A)”, the “phosphorylation” value [2] was “the phosphorylation of proteins immunoprecipitated with wild-type GAC and GACΔC is observed” and the “phosphorylation” value [3] was “the phosphorylation of proteins immunoprecipitated with wild-type GAC and GACΔC is observed”.
